The target of one data set is T1, human GIPR (Homo sapiens, UniProt P48546).
T1 construct: expressed in transfected cells; host or cells: HEK293 (CRE-HEK293, HEK293-GIPR-CRE)
T1 sequence (P48546 22-466): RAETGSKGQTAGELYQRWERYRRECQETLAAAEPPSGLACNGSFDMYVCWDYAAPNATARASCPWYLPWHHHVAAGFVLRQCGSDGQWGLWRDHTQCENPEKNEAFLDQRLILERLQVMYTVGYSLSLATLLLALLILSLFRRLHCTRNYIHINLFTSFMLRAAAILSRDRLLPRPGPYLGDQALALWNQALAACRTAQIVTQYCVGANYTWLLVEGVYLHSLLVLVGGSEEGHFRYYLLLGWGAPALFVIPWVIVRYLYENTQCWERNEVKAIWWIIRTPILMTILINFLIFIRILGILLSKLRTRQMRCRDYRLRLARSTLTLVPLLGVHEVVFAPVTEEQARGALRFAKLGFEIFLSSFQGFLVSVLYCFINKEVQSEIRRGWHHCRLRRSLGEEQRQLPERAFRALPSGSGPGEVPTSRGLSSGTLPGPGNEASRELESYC
As to the kind of experiment: In vitro receptor activation reporter assay (CRE-Luc, HEK293-GIPR-CRE cells; receptor-mediated cAMP synthesis). The class given is cell-based. The settings on record: unnumbered table. A general note: Reporter assays use an easily measured gene product as a stand-in for the process of interest.

Data set [1] in a line: Pharmacokinetics in CD-1 mouse, I.V. or S.C. 1 mg/kg, plasma concentration by LC-MS.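 On all read-outs here: peptide levels in plasma quantified by LC-MS across multiple sampling times.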 The settings on record: individual animals; for AUC(0-inf): AUCINF_pred; for MRT inf / MRT last: mouse, in vivo; for MRT inf: MRTINF_pred; for MRT last: MRTlast.
Protocol: The peptide plasma concentration at various time points was determined using LC-MS.
Setting [2] is: average of runs, read-out: EC50 GIPR average.
The mark [3] stands for this setting: Table 15, I.V. 1 mg/kg, 1 mg/kg.
[4] abbreviates: iv, 1 mg/kg, Table 15, I.V. 1 mg/kg.

The structures appear in SMILES notation. Several values for one entry are separate records, joined by “and”; a condition that tells them apart may be missing. Equal entries are not always repeated. Where two headings read alike, the source gives them in different places. Numbered stars: 1 amine (or outer) side, 2 acyl side, 3 side chain; on linkers, the order of the positions; unused ones are H or OH. Bridge positions count the residues as written; N and C are the ends. Square brackets hold non-standard residues; d marks the D form. Peptide text beside a SMILES is read from it. X2 = O=C(O)CCCCCCCCCCCCCCCCCCC(=O)N[C@@H](CCCCNC(=O)CCOCCOCCNC(=O)CCOCCOCCNC(=O)CCC(=O)N(CCNC(=O)C[*:1])CCNC(=O)C[*:2])C(=O)O; Aib = CC(C)(N)C(=O)O

Protocol for human GIPR: HEK293 cells were infected with lentivirus encoding firefly luciferase gene under the control of cAMP responsive element (CRE) promoter (Qiagen, The Netherlands) and then were selected using 1 μg mL^−1 puromycin (Life Technologies, Carlsbad) for 1 week. The surviving cells (referred to as CRE-HEK293) were expanded and then transfected with a G418 selective mammalian expression plasmid encoding human GLP-1R or GIPR. In brief, GLP-1R or GIPR plasmid was transfected into CRE-HEK293 cells using Lipofectamine 2000 and selected with 400 μg mL^−1 Geneticin (Life Technologies, Carlsbad, CA). Single colony stable cell line overexpressing CRE-luciferase and GLP-1R or GIPR (HEK293-GLP-1R-CRE or HEK293-GIPR-CRE) was then established for in vitro activity assay.
The EC50 of each peptide was determined using GraphPad Prism 6 software (GraphPad, San Diego, CA).

As to `CC[C@H](C)[C@H](NC(=O)[C@H](CC(C)C)NC(=O)[C@H](Cc1c[nH]c2ccccc12)NC(=O)[C@H](CC(N)=O)NC(=O)[C@@H](NC(=O)[C@H](Cc1ccccc1)NC(=O)[C@@H]1CSCC(=O)NCCN(C(=O)CCC(=O)NCCOCCOCCC(=O)NCCOCCOCCC(=O)NCCCC[C@H](NC(=O)CCCCCCCCCCCCCCCCCCC(=O)O)C(=O)O)CCNC(=O)CSC[C@H](NC(=O)[C@H](Cc2ccc(O)cc2)NC(=O)[C@@H](NC(=O)[C@H](CO)NC(=O)[C@H](Cc2ccc(O)cc2)NC(=O)[C@H](CC(=O)O)NC(=O)[C@H](CO)NC(=O)[C@@H](NC(=O)[C@H](Cc2ccc(O)cc2)NC(=O)[C@@H](NC(=O)CNC(=O)[C@H](CCC(=O)O)NC(=O)C(C)(C)NC(=O)[C@@H](N)Cc2ccc(O)cc2)[C@@H](C)O)[C@@H](C)O)[C@@H](C)CC)C(=O)N[C@@H](CC(=O)O)C(=O)N[C@@H](CCCCN)C(=O)N[C@@H](CCC(N)=O)C(=O)N[C@@H](C)C(=O)N[C@@H](C)C(=O)NC(C)(C)C(=O)N1)C(C)C)C(=O)N[C@@H](C)C(=O)NCC(=O)NCC(=O)N1CCC[C@H]1C(=O)N[C@@H](CO)C(=O)N[C@@H](CO)C(=O)NCC(=O)N[C@@H](C)C(=O)N1CCC[C@H]1C(=O)N1CCC[C@H]1C(=O)N1CCC[C@H]1C(=O)N[C@@H](CO)C(N)=O` [6Y, 27I, C(14-21)-C20L5A, YAibEGT-YTSDY-SIYXD-KQAAAib-XFVNW-LIAGG-PSSGA-PPPS-NH2 (where each X is C) (SEQ ID NO: 58)] (H-Y[Aib]EGTYTSDYSIYCDKQAA[Aib]CFVNWLIAGGPSSGAPPPS-NH2; linker 14-21 via X2), the EC50 on human GIPR (setting [2]) was found to be 0.56 nM; on human GIPR (run 03/26, read-out: EC50 GIPR 03/26) it was 0.6 nM.

With `CC[C@H](C)[C@H](NC(=O)[C@H](CC(C)C)NC(=O)[C@H](Cc1c[nH]c2ccccc12)NC(=O)[C@@H]1CSCC(=O)NCCN(C(=O)CCC(=O)NCCOCCOCCC(=O)NCCOCCOCCC(=O)NCCCC[C@H](NC(=O)CCCCCCCCCCCCCCCCCCC(=O)O)C(=O)O)CCNC(=O)CSC[C@H](NC(=O)[C@H](CCCCN)NC(=O)[C@H](CC(=O)O)NC(=O)[C@H](CC(C)C)NC(=O)[C@H](Cc2ccc(O)cc2)NC(=O)[C@@H](NC(=O)[C@H](CO)NC(=O)[C@H](Cc2ccc(O)cc2)NC(=O)[C@H](CC(=O)O)NC(=O)[C@H](CO)NC(=O)[C@@H](NC(=O)[C@H](Cc2ccc(O)cc2)NC(=O)[C@@H](NC(=O)CNC(=O)[C@H](CCC(=O)O)NC(=O)C(C)(C)NC(=O)[C@@H](N)Cc2ccc(O)cc2)[C@@H](C)O)[C@@H](C)O)[C@@H](C)CC)C(=O)N[C@@H](C)C(=O)N[C@@H](C)C(=O)NC(C)(C)C(=O)N[C@@H](CCC(=O)O)C(=O)N[C@@H](Cc2ccccc2)C(=O)N[C@@H](C(C)C)C(=O)N1)C(=O)N[C@@H](C)C(=O)NCC(=O)NCC(=O)N1CCC[C@H]1C(=O)N[C@@H](CO)C(=O)N[C@@H](CO)C(=O)NCC(=O)N[C@@H](C)C(=O)N1CCC[C@H]1C(=O)N1CCC[C@H]1C(=O)N1CCC[C@H]1C(=O)N[C@@H](CO)C(N)=O` [6Y, 27I, C(17-24)-C20L5A, YAibEGT-YTSDY-SIYLD-KXAAAib-EFVXW-LIAGG-PSSGA-PPPS-NH2 (where each X is C) (SEQ ID NO: 59)] (H-Y[Aib]EGTYTSDYSIYLDKCAA[Aib]EFVCWLIAGGPSSGAPPPS-NH2; linker 17-24 via X2), on human GIPR (setting [2]), the EC50 is 0.26 nM.

`CC[C@H](C)[C@H](NC(=O)[C@H](CC(C)C)NC(=O)[C@H](Cc1c[nH]c2ccccc12)NC(=O)[C@H](CC(N)=O)NC(=O)[C@@H](NC(=O)[C@H](Cc1ccccc1)NC(=O)[C@@H]1CSCC(=O)NCCN(C(=O)CCC(=O)NCCOCCOCCC(=O)NCCOCCOCCC(=O)NCCCC[C@H](NC(=O)CCCCCCCCCCCCCCCCC(=O)O)C(=O)O)CCNC(=O)CSC[C@H](NC(=O)[C@H](Cc2ccc(O)cc2)NC(=O)[C@@H](NC(=O)[C@H](CO)NC(=O)[C@H](Cc2ccc(O)cc2)NC(=O)[C@H](CC(=O)O)NC(=O)[C@H](CO)NC(=O)[C@@H](NC(=O)[C@H](Cc2ccccc2)NC(=O)[C@@H](NC(=O)CNC(=O)[C@H](CCC(=O)O)NC(=O)C(C)(C)NC(=O)[C@@H](N)Cc2ccc(O)cc2)[C@@H](C)O)[C@@H](C)O)[C@@H](C)CC)C(=O)N[C@@H](CC(=O)O)C(=O)N[C@@H](CCCCN)C(=O)N[C@@H](CCC(N)=O)C(=O)N[C@@H](C)C(=O)N[C@@H](C)C(=O)NC(C)(C)C(=O)N1)C(C)C)C(=O)N[C@@H](C)C(=O)NCC(=O)NCC(=O)N1CCC[C@H]1C(=O)N[C@@H](CO)C(=O)N[C@@H](CO)C(=O)NCC(=O)N[C@@H](C)C(=O)N1CCC[C@H]1C(=O)N1CCC[C@H]1C(=O)N1CCC[C@H]1C(=O)N[C@@H](CO)C(N)=O` [mCMZ370, YAibEGT-FTSDY-SIYXD-KQAAAib-XFVNW-LIAGG-PSSGA-PPPS-NH2 (where each X is C) (SEQ ID NO: 52)] came in with an AUC in data set [1] (CD-1, mouse, plasma, iv, 1 mg/kg, AUC0_24, Table 15, I.V. 1 mg/kg) of 121000 ng·h/mL. The AUC(0-t) in data set [1] (CD-1, mouse, plasma, iv, 1 mg/kg, AUC last, Table 15, I.V. 1 mg/kg) was 148 µg·h/mL. In addition, the AUC(0-inf) in data set [1] (CD-1, mouse, plasma, iv, 1 mg/kg, Table 15, I.V. 1 mg/kg) worked out at 149 µg·h/mL. In data set [1] (CD-1, mouse, plasma, iv, 1 mg/kg, C0, Table 15, I.V. 1 mg/kg), the C0 turned out to be 15200 ng/mL. In data set [1] (CD-1, mouse, plasma, iv, 1 mg/kg, Cmax, Table 15, I.V. 1 mg/kg), this molecule had a Cmax of 14600 ng/mL. Moreover, the Tmax in data set [1] (CD-1, mouse, plasma, iv, 1 mg/kg, Tmax, Table 15, I.V. 1 mg/kg) is 0.08 h. Moreover, the Vd in data set [1] (CD-1, mouse, plasma, iv, 1 mg/kg, Vss_pred, Table 15, I.V. 1 mg/kg) was found to be 0.098 L/kg. For the same molecule, in data set [1] (CD-1, mouse, plasma, iv, 1 mg/kg, Vz_pred, Table 15, I.V. 1 mg/kg), the Vd was 0.085 L/kg. In data set [1] (CD-1, mouse, plasma, iv, 1 mg/kg, t1/2, Table 15, I.V. 1 mg/kg), this molecule had a half-life of 529 min. The molecule further returned an AUC in data set [1] (CD-1, mouse, plasma, sc, 1 mg/kg, AUC0_24, CD-1 mouse, S.C.) of 41900 ng·h/mL. The molecule also showed an AUC(0-inf) in data set [1] (CD-1, mouse, plasma, sc, 1 mg/kg, S.C.) of 53.5 µg·h/mL. In addition, the AUC in data set [1] (CD-1, mouse, plasma, sc, 1 mg/kg, AUCall, S.C.) stood at 53300 ng·h/mL. Besides, the CL/F in data set [1] (CD-1, mouse, plasma, sc, 1 mg/kg, Cl_Fpred, S.C.) was 0.24 mL/min/kg. This molecule also yielded a Cmax in data set [1] (CD-1, mouse, plasma, sc, 1 mg/kg, Cmax, S.C.) of 2460 ng/mL. The molecule also had a half-life in data set [1] (CD-1, mouse, plasma, sc, 1 mg/kg, t1/2, CD-1 mouse, S.C.) of 450 min. Moreover, in data set [1] (CD-1 mouse, S.C., 1 mg/kg), the AUC0_24 is 44691 ng·h/mL and 63474 ng·h/mL; the AUCINF_pred was 68240 ng·h/mL and 80676 ng·h/mL; the “AUC_% Extrap_pred” value was 0.26% and 0.31% and 0.19%; the AUCall was 68029 ng·h/mL and 80522 ng·h/mL. Moreover, in data set [1] (CD-1 mouse, S.C., 1 mg/kg), the “AUMC_% Extrap_pred” value was 1.32% and 1.23% and 0.99%; the Cl_Fpred was 3.6 mL/h/kg; the Cmax is 2221 ng/mL and 3993 ng/mL; the MRTINF_pred is 20.64 h and 15.82 h. Moreover, in data set [1] (CD-1 mouse, S.C., 1 mg/kg), the MRTlast was 20.45 h and 15.69 h; the Tlast amounted to 72 h; the Tmax is 7 h and 24 h and 3 h; the V_F_pred was 0.2 L/kg and 0.15 L/kg and 0.13 L/kg. In data set [1] (CD-1 mouse, S.C., 1 mg/kg), the t1/2 was 7.06 h and 7.05 h. This molecule returned a Tlast in data set [1] (Table 15, I.V. 1 mg/kg) of 72 h. Also, in data set [1] (setting [3]), the AUC0_24 is 107856 ng·h/mL and 85158 ng·h/mL; the AUC last was 127.615 µg·h/mL and 102.411 µg·h/mL; the AUCINF_pred was 128099 ng·h/mL and 103033 ng·h/mL; the “AUC_% Extrap_pred” value is 0.39% and 0.38% and 0.6%. Also, in data set [1] (setting [3]), the “AUMC_% Extrap_pred” value was 2.24% and 2.36% and 3.79%; the C0 is 8380 ng/mL and 10006 ng/mL; the Cmax was 8230 ng/mL and 9829 ng/mL; the MRTINF_pred was 13.56 h and 13.74 h. Also, in data set [1] (setting [3]), the MRTlast is 13.29 h and 13.3 h; the Vss_pred was 0.106 L/kg and 0.133 L/kg; the Vz_pred is 0.099 L/kg and 0.138 L/kg; the t1/2 is 9.87 h. Also, in data set [1] (setting [4]), the MRT inf was found to be 14.6 h and the MRT last worked out at 14.3 h. Moreover, in data set [1] (sc, 1 mg/kg, CD-1 mouse, S.C.), the MRT inf is 16.2 h and the MRT last came out at 16.1 h.

In general, AUC refers to the area under the concentration-time curve, a measure of exposure. Higher therefore signals high exposure. What is called AUC(0-t) is the area under the concentration-time curve up to a stated or last time point. Low readings indicate low exposure, high ones high exposure. Usually AUC(0-inf) stands for total exposure, with the tail of the curve extrapolated. As usually defined, the Cmax is the peak of the concentration-time curve. In general, Tmax refers to the time at which the peak concentration occurs. The term half-life denotes the time in which the quantity being followed falls by half. Usually CL/F stands for clearance divided by bioavailability, as obtained after extravascular dosing. As usually defined, the MRT inf is the average time that molecules of a dose stay in the body. For orientation: MRT last means a mean duration of stay, worked out from the concentration-time curve.

These data come from patent US12329823B2 (The Scripps Research Institute, priority 2021, dated 2025).
